The results in this text go back to article PMC10278067.

Some targets named below: LD3_v1 (L133A); LD3_v5 (K144A); LD3_v4 (F140A); LD3_v3 (D138A); LD3_v2 (I136A).
Assay in all cases: SPR; Biacore 8K; original LD3 and mutants immobilised on CM5 chip by amine coupling (500-1000 RU); Bcl-2 injected as analyte in serial 2-fold dilutions (from 2000 or 500 nM); HBS-EP+ pH 7.4, 150 mM NaCl; 1:1 Langmuir fit; three independent experiments
On the technique in general: Surface plasmon resonance follows binding to a sensor surface in real time, without labels.

pKd: −log10 of the molar value.

Chain of LD3_v2 (I136A) (P02649 other isoform, or with tags, fused parts or gaps I136A): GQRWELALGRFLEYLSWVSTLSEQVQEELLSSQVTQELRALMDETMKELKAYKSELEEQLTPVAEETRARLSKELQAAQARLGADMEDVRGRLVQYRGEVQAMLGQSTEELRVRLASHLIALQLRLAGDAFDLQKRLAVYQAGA
Chain of LD3_v5 (K144A) (P02649 other isoform, or with tags, fused parts or gaps K144A): as the sequence (P02649 other isoform, or with tags, fused parts or gaps I136A) above, with A127I, K135A counted along it
Chain of LD3_v1 (L133A) (P02649 other isoform, or with tags, fused parts or gaps L133A): as the sequence (P02649 other isoform, or with tags, fused parts or gaps I136A) above, with L124A, A127I counted along it
Chain of LD3_v3 (D138A) (P02649 other isoform, or with tags, fused parts or gaps D138A): as the sequence (P02649 other isoform, or with tags, fused parts or gaps I136A) above, with A127I, D129A counted along it
Chain of LD3_v4 (F140A) (P02649 other isoform, or with tags, fused parts or gaps F140A): as the sequence (P02649 other isoform, or with tags, fused parts or gaps I136A) above, with A127I, F131A counted along it

On to “B-cell lymphoma 2 (Bcl-2) protein (from UniProt P10415 1-239) (natural protein)”, for which the pKd with LD3_v1 (L133A) was 7.18; with LD3_v5 (K144A) it was 9.34; with LD3_v4 (F140A) it was 7.56; in the assay with LD3_v3 (D138A) it was 6.45; with LD3_v2 (I136A) it was 9.13. The koff in the assay with LD3_v1 (L133A) was found to be 0.00263 s⁻¹; with LD3_v5 (K144A) it was 6.6e-05 s⁻¹; with LD3_v4 (F140A), 0.00197 s⁻¹; with LD3_v3 (D138A) it was 0.0184 s⁻¹; in the assay with LD3_v2 (I136A), 8.9e-05 s⁻¹. Moreover, the kon with LD3_v1 (L133A) worked out at 40800 M⁻¹ s⁻¹; in the assay with LD3_v5 (K144A), 455000 M⁻¹ s⁻¹; with LD3_v4 (F140A), 240000 M⁻¹ s⁻¹; with LD3_v3 (D138A), 154000 M⁻¹ s⁻¹; in the assay with LD3_v2 (I136A) it was 360000 M⁻¹ s⁻¹.

For orientation: pKd means the negative decadic logarithm of the Kd, by convention in mol/L. For orientation: koff means the rate constant with which the complex falls apart. A lower koff goes with a long-lived complex. As usually defined, the kon is the rate constant with which the complex forms. Read a low kon as slow association.
